The values below come from patent publication US20250326828A1 (STAIDSON BEIJING BIOPHARMACEUTICALS, published 2025).

For orientation: EC50 (read off the curve) means the concentration needed to bring the measured effect to its halfway point. The low end stands for an effect from little substance, the high end for a need for much substance. The IC50 is the concentration needed to halve the response being measured. What is called EC50 is the midpoint of the concentration-response curve.

Where two headings read alike, the source gives them in different places.

In test [1] the target is T1, human GDF15-his (human).
T1 construct: Recombinant His-tagged fusion protein expressed in 293F cells
T1 chain: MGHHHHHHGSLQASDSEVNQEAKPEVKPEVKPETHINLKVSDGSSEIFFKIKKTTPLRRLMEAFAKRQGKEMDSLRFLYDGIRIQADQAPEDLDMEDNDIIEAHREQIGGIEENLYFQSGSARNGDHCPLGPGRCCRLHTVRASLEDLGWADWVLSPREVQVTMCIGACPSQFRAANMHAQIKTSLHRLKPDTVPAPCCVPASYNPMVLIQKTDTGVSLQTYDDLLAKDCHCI
In words: ELISA as in Example 2: plate coated with the antibody, graded human GDF15-his, anti-his-HRP, OD450; the sheet's x axis reads 'Log GDF15 Antibody (nM)'. In a few lines:
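Plate coated with purified antibody (200 ng/well, 1 h, 37° C), BSA-blocked, then graded human GDF15-his (0-50 μg/ml) added. Bound antigen detected with anti-his-HRP (1:2000) and TMB, stopped with H₂SO₄, OD450 read. EC₅₀ derived from binding curves.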

Test [2] has as its target T1, human GDF15-his. In words: cell-based or functional assay.
In test [3] the target is T1, human GDF15-his. In words: cell-based or functional assay.
Test [4] concerns the target T2, human GDF15-hFc (human).
T2 construct: Recombinant hFc-tagged fusion protein expressed in 293F cells
T2 chain: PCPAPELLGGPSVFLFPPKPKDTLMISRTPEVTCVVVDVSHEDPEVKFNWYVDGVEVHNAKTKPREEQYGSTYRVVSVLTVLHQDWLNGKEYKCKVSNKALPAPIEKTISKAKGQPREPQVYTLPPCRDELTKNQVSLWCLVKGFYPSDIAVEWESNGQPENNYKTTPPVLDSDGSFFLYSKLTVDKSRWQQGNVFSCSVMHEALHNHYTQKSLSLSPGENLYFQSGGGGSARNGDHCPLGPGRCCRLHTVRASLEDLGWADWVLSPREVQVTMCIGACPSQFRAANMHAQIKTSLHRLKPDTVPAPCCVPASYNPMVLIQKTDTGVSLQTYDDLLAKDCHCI
The test is described as follows: competition ELISA; GFRAL-his coated, antibody titrated against human GDF15-hFc, anti-human IgG-HRP detection. The method, then:
The ELISA assay was performed to measure the inhibitory activity of anti-GDF15 antibodies in concentration gradients to block GDF15 binding to GFRAL receptor. IC₅₀ values were used as a measure for neutralizing activity of candidate molecules. Briefly, 96-well plates were coated with 100 ng/well of GFRAL-his protein (SEQ ID NO: 74), and incubated for 1 h at 37° C. The plates were washed with PBST and then blocked for 1 hour at 37° C. with 1% BSA. Gradient-diluted antibodies (dose range 0˜10 μg/ml) was added into each well, immediately followed by equal volume of human GDF15-hFc protein ([…]). After incubation and washing, 100 μl of anti-human IgG secondary antibody (goat anti-human IgG-HRP, Sigma, A8667) was added to each well. Finally, TMB solution (100 μl/well) was added. 2M H₂SO₄ was used to stop the reaction. The OD450 was measured and the binding curve was generated by PRISM to calculate the IC₅₀ value.
(ELISA stands for enzyme-linked immunosorbent assay.)

The target of test [5] is T1, human GDF15-his. In words: cell-based or functional assay.
In test [6] the target is T2, human GDF15-hFc. The test is described as follows: competition ELISA as in Example 2; GFRAL-his coated, antibody titrated against human GDF15-hFc. In a few lines: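 GFRAL-his coated at 100 ng/well, blocked with 1% BSA; antibodies (0–10 μg/ml) added with equal volume of human GDF15-hFc ([…]). Bound GDF15-hFc detected with anti-human IgG-HRP/TMB at OD450; IC₅₀ from binding curve as neutralizing activity.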

For test [7], the target named is T1, human GDF15-his. The test is described as follows: ELISA as in Example 2: plate coated with the antibody, graded human GDF15-his, anti-his-HRP, OD450; the sheet's x axis reads 'Log GDF15 Antibody (nM)'. The method, then: (§1) ELISA binding assay: The purified monoclonal antibody was subjected to a binding assay with human GDF15-his protein. The binding assay was designed to characterize the binding activity of the anti-GDF15 antibody. Briefly, a 96-well plate was coated with anti-GDF15 antibody (200 ng/well) and incubated for 1 hour at 37° C. The plates were washed with PBST and then blocked for 1 hour at room temperature using 1% BSA. Then 100 µl/well of gradient-diluted human GDF15-his solution (dose range 0-50 μg/ml) was added into plates. After incubation, 100 μl of anti-his tag secondary antibody (anti-his-HRP (1:2000), Bersee, cat #BHR790) was added to each well. Finally, the TMB solution (100 μl/well) was added. 2M H₂SO₄ was used to stop the reaction. The OD450 was measured, and the binding curves were generated by PRISM software to analyze the affinity of candidate antibodies to human GDF15 antigen, and EC₅₀ value were calculated.

For test [8], the target named is T1, human GDF15-his. In words: ELISA; antibody coated, human GDF15-his titrated, anti-his-HRP detection. The procedure:
as §1

Test [9] has as its target T1, human GDF15-his. In words: cell-based or functional assay.
The target of test [10] is T1, human GDF15-his. In words: ELISA as in Example 2: plate coated with the antibody, graded human GDF15-his, anti-his-HRP, OD450; the sheet's x axis reads 'Log GDF15 antibody (nM)'. The method, then: as §1
Test [11] addresses T1, human GDF15-his. The test is described as follows: cell-based or functional assay.

B1: GDF-R37-rabIg1 (antibody, V domains shown)
VH: QQLKESGGRLVTPGTPLTLTCTASGFSLSNYYMSWVRQAPGEGLEWIGMISFSGTTYATWAKGRFTISKTSTTVDLKITSPTTEDTATYFCARVVYAGWTYPLGIWGPGTLVTISS
VL: AVVLTQTAASVSEPVGGTVTIKCQASQSISSVLSWYQQKPGQPPKALIYEASILASGVPSRFKGSGSGTDFTLTISDLECADAATYYCQANYDVYNYGNPFGGGTEVVVK
notes: Full-length rabbit antibody: rabbit IgG1 heavy constant and rabbit light constant; also called GDF15-R37-rabIg1
Regarding B1, the “EC50 (read off the curve)” value with human GDF15-his [1] is about 60 nM; with human GDF15-his [7], about 80 nM; with human GDF15-his [10] it was about 200 nM. Also, the “IC50 (read off the curve), SRE-luciferase signal in 293T-GFRAL/RET-Luc cells with human GDF15-his” value in the test with human GDF15-his [2] was about 0.05 nM; with human GDF15-his [3], about 0.2 nM; with human GDF15-his [9], about 0.1 nM; in the test with human GDF15-his [11], about 0.06 nM. In addition, the IC50 turned out to be 1.28 nM with human GDF15-hFc [4] and 2.49 nM with human GDF15-hFc [6]. In addition, the “IC50, 293T-GFRAL/RET-Luc SRE luciferase reporter cells stimulated with human GDF15-his (15 ng/ml)” value with human GDF15-his [5] was found to be 0.15 nM. In the test with human GDF15-his [8], this molecule yielded an EC50 of 43.1 nM.
